From patent US20250122301A1 (IBIO, published 2025)
Numbering of substitutions follows the chain as printed.

T1: CD25 on CD25+ cells (SUDHL-1, HEK IL-2 reporter cells, primary human regulatory T cells) (human, UniProt P01589 22-272)
T1 construct: whole, on cells; also called IL-2Ralpha
T1 sequence (looked up): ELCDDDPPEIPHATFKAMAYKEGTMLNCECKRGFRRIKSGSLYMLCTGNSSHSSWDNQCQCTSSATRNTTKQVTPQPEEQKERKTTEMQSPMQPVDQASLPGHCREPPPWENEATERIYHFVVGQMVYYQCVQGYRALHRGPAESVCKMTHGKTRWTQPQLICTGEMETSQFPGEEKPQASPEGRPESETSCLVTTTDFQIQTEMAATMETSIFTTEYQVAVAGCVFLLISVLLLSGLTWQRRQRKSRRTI

T2: full-length CD25 (human CD25, recombinant protein used on biosensors) (human, UniProt P01589 22-213, limits assumed)
T2 construct: Printed only as Human CD25 / full-length CD25; also called CD25 antigen; alpha chain of the IL-2 receptor
T2 sequence (looked up): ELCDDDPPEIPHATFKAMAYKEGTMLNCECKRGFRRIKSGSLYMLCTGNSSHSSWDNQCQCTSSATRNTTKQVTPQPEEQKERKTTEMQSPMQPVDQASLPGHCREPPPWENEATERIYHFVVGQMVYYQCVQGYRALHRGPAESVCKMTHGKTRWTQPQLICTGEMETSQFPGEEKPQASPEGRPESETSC

B1: AH05214 (human IgG1 reformatted) (antibody, V domains shown)
VH: QIQLQQPGAELVKPGASVKLPCKASGYTFTSYWMHWVKQRPGQGLEWIGEINPSNGRTNYNEKFKSKATLTVDKSSSTAYMQLSSLTSEDSAVYYCARQLAAYWGQGTTVTVSS
VL: DILLTQSPALMAASPGEKVTITCSVSSSISSSNLHWYQQKSETSPKPWIYGTSNLASGVPVRFSGSGSGTSYSLTISSMEAEDAATYYCQQWSSYPLTFGGGTKLEIK
B2: 7G7B6 (antibody, V domains shown)
VH: EVQLVESGGDLVQPRGSLKLSCAASGFTFSSYGMSWVRQTPDKRLELVATINGYGDTTYYPDSVKGRFTISRDNAKNTLYLQMSSLKSEDTAMYFCARDRDYGNSYYYALDYWGQGTSVTVSS
VL: QIVLSQSPAILSASPGERVTMTCRASSSVSFMHWLQQKPGSSPKPWIYATSNLASGVSARFSGSGSGTSYSLTITRVEAEDAATYYCQQWSSNPPAFGGGTKLEIK
B3: D34 Fab (Fab, V domains shown)
VH: QVQLQQSGAELVRPGVSVKISCKGSGYTFTDYAMHWVKQSHAKSLEWIGVISTYSGDVSYNQKFKGKATMTVDKSSSTAYMELARLTSEDSAIYYCARGVTFDSWGQGTTVTVSS
VL: DIQMTQSPASLSASVGETVTITCRASENSYSYLEWYQQKQGKSPQLLVYNAKTLAEGVPSRFSGSGSGTQFSLKINSLQPEDFGTYYCQHHYGTPYTFGGGTKLEIK
notes: Fab; also called Fab clone D34
B4: AH05268 (human IgG1 reformatted) (antibody, V domains shown)
VH: B3 VH with V18L, K38R, V58A, S59L, M81L, E89D, S104Y, V111L
VL: DVQMTQSPSSMYASLGERVTFTCKASQDINRYLSWFQQKPGKSPKTLIYRANRLVDGVPSRFSGSGSGQNYSLTISSLEYEDMGIYYCLQYDEFPYTFGGGTKLEIK
B5: AH05258 (human IgG1 reformatted) (antibody, V domains shown)
VH: B3 VH with V2I, V111L
VL: DIVMTQSHKFMSTSVGDRVSITCKASQDVSTAVAWYQQKPGQSPKLLIYSASYRYTGVPDRFTGSGSGTDFTFTISSVQAEDLAVYYCQQHYSTPFTFGSGTKLEIK
B6: D11 (human IgG1 reformatted) (antibody, V domains shown)
VH: B3 VH with V2I, S7P, V18L, K38R, V58A, S59I, M81L, E89D, S104Y
VL: DIQMTQTTSSLSASLGDRVTITCRASQDISNYLEWYQQKQGKSPQLLVYNAKTLAEGVPSRFSGSGSGTQFSLKINSLQPEDFGSYYCQHHYDTPYTFGGGTKLEIK
B7: AH05257 (human IgG1 reformatted) (antibody, V domains shown)
VH: B3 VH with V18L, K38R, V58A, S59I, M81L, S104Y, V111L, S115A
VL: DIVMTQSTSSLSASLGDRVTISCRASQDISNYLSWYQQKPDGTIKLLIYYTSRLHSGVSSRFSGSGSGTDYSLTISNLEQEDFATYFCQQGHTLPPTFGGGTKLEIK
B8: D34 (human IgG1 reformatted) (antibody, V domains shown)
VH: B3 VH
VL: B3 VL
B9: AH05271 (human IgG1 reformatted) (antibody, V domains shown)
VH: B3 VH with I93T, V111L
VL: DIQMTQTPASLAASVGETVTITCRASENIYFSLAWYQQKQGKSPQLLIYNANTLEDGVPSRFSGSGSGTQFSMKINNMQPEDTATYFCKQAYDVPWTFGGGTKLEIK
B10: D36 Fab (Fab, V domains shown)
VH: B3 VH with S7P, V18L, K38R, V58A, S59L, M81L, S104Y, V111L
VL: B3 VL with I2V, Q3V, I106M
notes: Fab; also called Fab clone D36
B11: AH05280 (human IgG1 reformatted) (antibody, V domains shown)
VH: EVRLQQSGADLMKPGASVKISCKTSGYTFSNYWTEWIKQRPGHGLEWIGEILPGSGFTNYNENFKGKATFTADTSSNTTYMQLSSLTSEDSAVYYCARGGTSVVHFDYWGQGTSLTVSS
VL: DIVMTQTPKFLLVSAGDRVTITCKASQSVNNDVLWYQQKPGQSPKLLIYYASNRYTGVPDRFTGSGYGTDFTFTISTVQAEDLAVYFCQQAYWSPYTFGGGTKLEIK
B12: AH05249 (human IgG1 reformatted) (antibody, V domains shown)
VH: B11 VH with E1Q, R3Q, I20M, K23R, T24A, T34I, Q82L, T87S, Y108S, S114T
VL: B11 VL with L34V, A91D, W93R
B13: AH05286 (human IgG1 reformatted) (antibody, V domains shown)
VH: B11 VH with E1Q, R3Q, Q5K, T24A, T34I, F57Y, M81I, T87S, V103F, S114T
VL: DIVLTQSPPTLSLSPGERVTLSCKASQDVNTAVAWYQQKPGQAPRLLIYWASTRHTGVPSRFSGSGSGTDFTLTISSLQPEDFATYYCQQHYSSPWTFGGGTKLEIK
B14: D5 Fab (Fab, V domains shown)
VH: HVQLQQSGAELVRPGTSVKISCKASGYTFTNYWLGWVKQRPGHGLEWIGDIYPGGGYTNYNEKFKGKATLTADTSSSTAYMQLSSLTSEDSAVYFCARVTPASWGQGTSLTVSS
VL: DIVMTQSQKFMSTSVGDRVSVTCKASQNVGTNVAWYQQKPGQSPKALIYSASYRYSGVPDRFTGSGSGTDFTLTISNVQSEDLAEYFCQQYNSYPYTFGGGTKLEMK
notes: Fab from mouse immune phage library, expressed in E. coli; also called Fab clone D5
B15: AH05247 (human IgG1 reformatted) (antibody, V domains shown)
VH: B11 VH with E1Q, R3Q, I20M, K23R, T24A, T34I, Q82L, T87S, Y108S, S114T
VL: B14 VL with Y96L, M106I
B16: AH04509 (human IgG1 reformatted) (antibody, V domains shown)
VH: QIQLQQSGAELVRPGTSVKMSCKAAGYTFTNYWIGWVKQRPGHGLEWIGDFYPGGDYINYNEKFKGKATLTADTSSSTAYMQLSSLTSEDSAIYYCTSRNFAYWGQGTPVTVSS
VL: B14 VL with I2T, V3T, M4V, K9R, A46P, S76N, S93N, Y94S, Y96L, M106I
notes: also called AH4509
B17: BP003-T2P1E3 (human IgG1 reformatted) (antibody, V domains shown)
VH: B16 VH with F51I, Y52H, D56G, I58T
VL: B14 VL with M4L, M106I
B18: AH04750 (human IgG1 reformatted) (antibody, V domains shown)
VH: QVQLQQPGAEMAKPGASVKMSCKASGYTSTAYWIHWVKQRPGQGLEWIGYITPSTGYTEYNQKFEDKATLTADKSSNTAYMQLNSLTSEDSAVYYCARGGYFDYWGQGTTVTVSS
VL: B7 VL with V3Q, S7T, S34N, I44V, S59P, F83I, H92N, I106M
B19: AH04734 (human IgG1 reformatted) (antibody, V domains shown)
VH: QVQLQQPAAELARPGASVKMSCKASGYTFTTSTMHWVKQRPGQGLEWIGYINPRSGYTEYNQKFKDKTTLTADKSSSTAYMQLSSLTSEDSAVYYCARHYYFDYWGQGTTVTVSS
VL: B7 VL with V3Q, S30R, S34N, I44V, S59P, F83I, H92N, F98S
B20: AH05251 (human IgG1 reformatted) (antibody, V domains shown)
VH: EVRLQQSGAELVRSGASVKLSCTASGFNIKDYYIHWVKQRPEQGLEWIGWIDPDNGETEYAPKFQGKATMTADTSSNTAHLQLSSLTSEDTAVYYCTVFWYGNNYAGFAYWGQGTLVTVSS
VL: DVVMTQTPLSLPVNLGDQASISCRSSQSIVHSNGNTYLEWYLQKPGQSPKLLIYKVSNRFSGVPDRFSGSGSGTDFTLKISRVEAEDLGIYYCFQGSHVPPTFGGGTKLEIK
B21: BP003-T2P1D7 (human IgG1 reformatted) (antibody, V domains shown)
VH: B20 VH with E1Q, V2A, R3Y, S121A
VL: B20 VL with M4L, N14S, R82K, I90V

Columns and labels:
[1] = target: T1, CD25 on CD25+ cells (SUDHL-1, HEK IL-2 …); experiment: flow cytometry, dose response on CD25+ SUDHL-1 cells;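 also: antibody binding to cells read as median fluorescence intensity of an AF647 anti-human Fc secondary, DAPI+ dead cells excluded, 20 min on ice, 5-fold dilutions from 10 ug/mL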
Description: For each cell line, 100,000 cells were plated in a 96 well round bottom plate in cell buffer (PBS+2% HI FBS) and centrifuged. Antibody concentrations from 1-10 ug/mL were used to test the binding of each antibody. Cell were resuspended in 100 uL of antibodies/well and incubated for 20 minutes on ice. After incubation, cells were centrifuged at 300×g for 5 minutes at room temperature, and resuspended and washed with ice cold cell buffer. Cells were then stained with an anti-human Fc secondary antibody conjugated to AF647 (Biolegend) and incubated on ice for 20 min in the dark. Cells were centrifuged, washed and resuspended in cold cell buffer with DAPI and analyzed using flow cytometry (Cytoflex, Becton Dickinson). DAPI+ cell were excluded from analysis. The mean fluorescence intensity was calculated using the median (FlowJo, TreeStar).

[2] = target: T1, CD25 on CD25+ cells (SUDHL-1, HEK IL-2 …); experiment: cell-based or functional assay
[3] = target: T2, full-length CD25 (human CD25, …); experiment: Octet BLI, human CD25 on AR2G tip, Fab, pH 6.5
Description: For Octet Koff rate screening in raw supernatants, 50 ul of lysate was used in 384-well Pall ForteBio Octet plates. […] Briefly, Human CD25 was coupled to AR2G tips (1 ug/ml). For data collection, baseline was assessed in PBST 1% BSA buffer at pH 6.5 for 60 seconds. Tips were then moved to 50 ul lysate pH6.5 adjusted and association measured for 300 seconds. Finally, tips were moved to PBST 1% BSA buffer at pH 6.5. Tips were then regenerated with 200 mM Tris-Glycine, pH 2.5 and neutralization with PBST, 1% BSA, pH 6.5. For data analysis, Double referencing was performed on Octet HT 11.0 software (no CD25 on tip as well as blank reference well), for reference subtraction.

[4] = target: T2, full-length CD25 (human CD25, …); experiment: Octet BLI, human CD25 on AR2G tip, Fab, pH 7.4

Binder	EC50 [1] [µg/mL]	further results
B1	~51.1	
B2	0.903	pSTAT5 IC50 (1 ug/mL) [ng/ml] [2]: 0.963 ng/ml; pSTAT5 IC50 (2 ug/mL) [ng/ml] [2]: 0.906 ng/ml; pSTAT5 IC50 (5 ug/mL) [ng/ml] [2]: 1.47 ng/ml
B3		koff [3]: 0.00296 s⁻¹; pSTAT5 IC50 (1 ug/mL) [ng/ml] [2]: 2.56 ng/ml; pSTAT5 IC50 (2 ug/mL) [ng/ml] [2]: 2.35 ng/ml; pSTAT5 IC50 (5 ug/mL) [ng/ml] [2]: 2.27 ng/ml; koff [4]: 0.00285 s⁻¹
B4	0.108	
B5	0.184	
B6	2.12	
B7	0.113	
B8	1.1	
B9	0.25	
B10		koff [3]: 0.00172 s⁻¹; pSTAT5 IC50 (1 ug/mL) [ng/ml] [2]: 2.23 ng/ml; pSTAT5 IC50 (2 ug/mL) [ng/ml] [2]: 3.45 ng/ml; pSTAT5 IC50 (5 ug/mL) [ng/ml] [2]: 0.378 ng/ml; koff [4]: 0.000898 s⁻¹
B11	0.387	
B12	0.897	
B13	0.777	
B14		koff [3]: 0.00412 s⁻¹; pSTAT5 IC50 (1 ug/mL) [ng/ml] [2]: 0.303 ng/ml; pSTAT5 IC50 (2 ug/mL) [ng/ml] [2]: 0.488 ng/ml; pSTAT5 IC50 (5 ug/mL) [ng/ml] [2]: 1.65 ng/ml; koff [4]: 0.00345 s⁻¹
B15	0.0977	
B16	0.121	
B17	0.125	
B18	0.107	
B19	1.91	
B20	0.132	
B21	0.125	
